Patent publication US20080207488A1, “Method for Detecting Peptides Comprising a Cross-B Structure” (priority 2005, published 2008)

Experiments:
sRAGE = molecular target: T1, sRAGE (Homo sapiens, UniProt Q15109); assay: Biacore surface plasmon resonance, binding to immobilized sRAGE; conditions: Hb-AGE 32, amyloid γ-globulins 62.5, albumin-AGE 3.9 μg ml^−1
T1 construct: comprises three domains spanning amino-acid residues 23-325; His-tag with thrombin cleavage site (N); made in house; host or cells: 293E cells (printed as '293E hamster embryonic kidney cells')
Description: The soluble extracellular part, of the receptor for AGE (sRAGE) was cloned, expressed and purified as follows (Q.-H. Zeng, Prof. P. Gros, Dept. of Crystal- & Structural Chemistry, Bijvoet Center for Biomolecular Research, Utrecht University, Utrecht, the Netherlands). Human cDNA of RAGE was purchased from RZPD (clone IRALp962E1737Q2, RZPD, Berlin, Germany). For PCRs, the gagatct[…] forward primer was used comprising a BglII site, and the gcggccgc[…] reverse primer with a NotI site. The soluble extracellular part of RAGE comprises three domains spanning amino-acid residues 23-325. The PCR product was cloned into a pTT3 vector, containing an amino-terminal His-tag and a thrombin cleavage site. The sRAGE was expressed in 293E hamster embryonic kidney cells at the ABC-protein expression facility (Utrecht University, Utrecht, the Netherlands). […]
Binding of cross-β structure conformation containing peptides/proteins was studied using surface plasmon resonance technology with a Biacore 2000 apparatus (Biacore AB, Uppsala, Sweden). […] Binding of albumin-AGE was determined with a solution of 3.9 μg ml^−1 albumin-AGE in running buffer. albumin-AGE was filtered on a Millex-GV 0.22 μm filter unit (Millipore). […] Binding of Hb-AGE was also tested after centrifugation for 10 min. at 16,000*g alternative to filtration. tPA activation before and after filtration was assessed with a Plg-activation assay. […]

human BiP = molecular target: T2, human BiP (Homo sapiens, UniProt P11021); assay: ELISA, binding of BiP to coated (mis)folded proteins; conditions: coated protein
T2 construct: made in house; host or cells: HEK293E cells, transient transfection, protein purified from the medium
Procedure: The plates were blocked using Blocking reagent (Roche 1112589). A dilution series of the protein of interest was applied to the coated proteins and wells were subsequently washed using TBS-T (50 mM Tris pH 7.3, 150 mM NaCl and 0.1% Tween20). Bound protein is detected by the FLAG-tag using 1:3000 anti-FLAG-HRP (Sigma A-8592) in PBS-T, or by 1:1000 Ni-NTA-HRP (Qiagen 34530) in PBS-T. The HRP reaction Is performed using the TMB substrate (Biosource 4501103 or Tebu Bio 101TMB100-500), stopped using 10% H2SO4 and absorbance was measured at 450 nm.

[1] = Stability testing of biopharmaceuticals under denaturing conditions (ThT fluorescence, tPA activation); format: physicochemical; conditions: ThT at 25 μg/mL, tPA activation at 100 μg/mL
Procedure: To mimic accelerated stability testing several therapeutics were exposed to denaturing conditions and assayed for amyloid-like properties before and after treatment by tPA activation assay at 100 μg/mL protein and ThT fluorescence enhancement assay at 25 μg/mL protein. For this purpose, 5 mg/mL Glucagon (Glucagen; Novo Nordisk Farma B.V., Alphen aan de Rijn, The Netherlands) was incubated at 37° C. in 0.01 M HCl for 48 hours. One mg/mL Etanercept (Enbrel; Wyeth Pharmaceuticals B.V., Hoofddorp, The Netherlands) in 67 mM sodium phosphate buffer, 100 mM NaCl pH 7.0 was gradually heated from 30° C. to 85° C. over a period of 12 minutes and afterwards cooled to 4° C. for 5 minutes, this treatment was repeated 4 times. Abciximab (Reopro; Centocor B.V., Leiden, The Netherlands) and Infliximab (Remicade; Schering-Plough B.V., Utrecht, The Netherlands) were incubated at 65° C. for 16 and 72 hours, respectively.

T2 sequence (P11021 19-654): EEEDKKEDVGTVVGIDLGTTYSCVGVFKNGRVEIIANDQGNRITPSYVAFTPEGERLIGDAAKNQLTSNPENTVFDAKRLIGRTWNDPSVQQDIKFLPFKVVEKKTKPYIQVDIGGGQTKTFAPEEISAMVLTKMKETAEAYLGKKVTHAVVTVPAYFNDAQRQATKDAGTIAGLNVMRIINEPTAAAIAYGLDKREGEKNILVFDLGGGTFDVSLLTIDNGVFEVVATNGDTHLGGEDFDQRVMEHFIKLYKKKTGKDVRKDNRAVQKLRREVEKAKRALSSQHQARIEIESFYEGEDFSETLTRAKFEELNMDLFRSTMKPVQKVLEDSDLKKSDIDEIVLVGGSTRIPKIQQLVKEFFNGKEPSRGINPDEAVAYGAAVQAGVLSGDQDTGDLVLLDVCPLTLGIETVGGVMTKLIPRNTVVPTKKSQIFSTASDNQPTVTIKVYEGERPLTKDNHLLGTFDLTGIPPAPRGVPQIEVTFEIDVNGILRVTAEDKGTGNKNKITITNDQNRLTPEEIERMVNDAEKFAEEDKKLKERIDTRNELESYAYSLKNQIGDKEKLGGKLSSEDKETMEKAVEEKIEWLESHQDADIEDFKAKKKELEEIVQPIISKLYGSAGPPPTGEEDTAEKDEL
T1 sequence (Q15109 23-325): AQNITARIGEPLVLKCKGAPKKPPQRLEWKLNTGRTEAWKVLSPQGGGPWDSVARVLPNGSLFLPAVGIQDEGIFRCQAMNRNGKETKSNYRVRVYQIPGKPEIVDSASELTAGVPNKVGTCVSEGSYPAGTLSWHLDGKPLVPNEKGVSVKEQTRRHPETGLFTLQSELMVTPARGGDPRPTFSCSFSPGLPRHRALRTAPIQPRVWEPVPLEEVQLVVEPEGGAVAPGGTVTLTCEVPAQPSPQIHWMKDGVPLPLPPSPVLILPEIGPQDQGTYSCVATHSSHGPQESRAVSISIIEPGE

Substance | binding to immobilized sRAGE (sRAGE) | binding of BiP (detection anti-FLAG-HRP) (human BiP) | binding of BiP (detection Ni-NTA-HRP) (human BiP; FIG. 7A) | amyloid-like properties after exposure to harsh denaturing conditions (low pH, heat) [1]
albumin-AGE: advanced glycation end-product modified bovine serum albumin | bind | high affinity | low affinity | 
Abciximab: abciximab, an inhibitor of blood platelet aggregation (ReoPro, Centocor) |  |  |  | amyloid-like properties are adopted
